Values of other authors, collected in PMC7226344.

Legend:
[1] = biological target: Cav3.1 (Rattus norvegicus) (UniProt O54898)
Cav3.2 (Homo sapiens) = Cav3.2 (Homo sapiens) (UniProt O95180)
Sequence of UniProt O95180 (O95180 whole entry): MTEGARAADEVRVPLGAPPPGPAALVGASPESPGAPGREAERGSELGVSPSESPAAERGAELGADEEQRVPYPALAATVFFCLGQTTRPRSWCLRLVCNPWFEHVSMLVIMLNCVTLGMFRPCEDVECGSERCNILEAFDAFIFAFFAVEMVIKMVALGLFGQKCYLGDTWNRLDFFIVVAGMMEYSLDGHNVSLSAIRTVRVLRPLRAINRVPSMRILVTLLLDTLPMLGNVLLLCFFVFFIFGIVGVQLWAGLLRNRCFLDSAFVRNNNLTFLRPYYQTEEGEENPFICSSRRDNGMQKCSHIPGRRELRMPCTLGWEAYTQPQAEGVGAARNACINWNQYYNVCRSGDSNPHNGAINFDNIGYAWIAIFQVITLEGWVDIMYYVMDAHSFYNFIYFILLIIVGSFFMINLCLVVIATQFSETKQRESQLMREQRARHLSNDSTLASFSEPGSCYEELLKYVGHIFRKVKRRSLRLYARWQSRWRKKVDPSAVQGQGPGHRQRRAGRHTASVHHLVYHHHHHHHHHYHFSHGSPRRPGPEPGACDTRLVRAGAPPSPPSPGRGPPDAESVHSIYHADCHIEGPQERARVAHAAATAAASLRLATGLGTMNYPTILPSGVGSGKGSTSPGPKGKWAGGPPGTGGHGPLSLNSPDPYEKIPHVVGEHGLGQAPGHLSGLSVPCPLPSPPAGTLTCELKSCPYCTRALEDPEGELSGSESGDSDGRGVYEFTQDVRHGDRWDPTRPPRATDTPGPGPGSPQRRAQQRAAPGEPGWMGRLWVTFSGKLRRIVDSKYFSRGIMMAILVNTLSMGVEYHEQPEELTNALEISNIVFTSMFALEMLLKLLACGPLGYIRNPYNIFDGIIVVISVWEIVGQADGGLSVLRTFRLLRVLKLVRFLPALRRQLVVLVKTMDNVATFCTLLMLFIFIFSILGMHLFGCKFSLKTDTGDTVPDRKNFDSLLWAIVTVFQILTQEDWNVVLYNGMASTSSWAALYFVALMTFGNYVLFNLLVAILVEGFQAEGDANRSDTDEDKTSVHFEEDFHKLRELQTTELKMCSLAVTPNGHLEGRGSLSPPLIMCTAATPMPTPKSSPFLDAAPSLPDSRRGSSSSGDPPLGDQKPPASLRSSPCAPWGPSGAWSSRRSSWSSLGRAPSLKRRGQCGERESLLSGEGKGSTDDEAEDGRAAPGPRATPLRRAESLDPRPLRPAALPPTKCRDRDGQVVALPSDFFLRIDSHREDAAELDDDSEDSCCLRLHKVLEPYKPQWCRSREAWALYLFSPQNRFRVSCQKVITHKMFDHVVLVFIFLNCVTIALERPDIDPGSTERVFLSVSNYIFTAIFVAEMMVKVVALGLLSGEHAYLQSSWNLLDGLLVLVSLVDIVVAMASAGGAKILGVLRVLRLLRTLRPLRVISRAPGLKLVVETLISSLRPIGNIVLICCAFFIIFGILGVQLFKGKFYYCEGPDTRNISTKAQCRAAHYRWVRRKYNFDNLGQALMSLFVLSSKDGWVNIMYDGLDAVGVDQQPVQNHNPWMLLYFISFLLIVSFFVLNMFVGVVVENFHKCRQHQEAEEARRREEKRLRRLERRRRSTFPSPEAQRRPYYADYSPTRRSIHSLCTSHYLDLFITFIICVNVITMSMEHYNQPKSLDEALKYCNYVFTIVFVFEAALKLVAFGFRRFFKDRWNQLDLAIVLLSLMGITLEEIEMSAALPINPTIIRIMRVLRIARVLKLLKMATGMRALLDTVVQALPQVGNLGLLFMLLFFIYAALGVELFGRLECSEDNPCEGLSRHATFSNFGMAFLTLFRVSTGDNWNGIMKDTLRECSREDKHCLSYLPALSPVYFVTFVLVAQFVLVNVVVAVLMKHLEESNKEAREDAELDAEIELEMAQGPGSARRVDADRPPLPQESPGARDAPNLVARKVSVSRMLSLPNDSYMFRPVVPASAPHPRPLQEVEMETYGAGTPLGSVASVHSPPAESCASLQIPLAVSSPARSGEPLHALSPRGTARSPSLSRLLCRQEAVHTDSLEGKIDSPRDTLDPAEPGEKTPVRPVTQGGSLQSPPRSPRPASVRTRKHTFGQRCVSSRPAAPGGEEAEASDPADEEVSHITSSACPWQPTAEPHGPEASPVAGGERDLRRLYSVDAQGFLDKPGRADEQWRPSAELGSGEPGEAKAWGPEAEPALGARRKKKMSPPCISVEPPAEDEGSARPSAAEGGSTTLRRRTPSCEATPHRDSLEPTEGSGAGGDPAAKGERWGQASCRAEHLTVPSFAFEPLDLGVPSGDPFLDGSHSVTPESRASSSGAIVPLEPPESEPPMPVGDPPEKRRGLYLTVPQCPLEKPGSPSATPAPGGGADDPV

Sequence of UniProt O54898 (O54898 whole entry): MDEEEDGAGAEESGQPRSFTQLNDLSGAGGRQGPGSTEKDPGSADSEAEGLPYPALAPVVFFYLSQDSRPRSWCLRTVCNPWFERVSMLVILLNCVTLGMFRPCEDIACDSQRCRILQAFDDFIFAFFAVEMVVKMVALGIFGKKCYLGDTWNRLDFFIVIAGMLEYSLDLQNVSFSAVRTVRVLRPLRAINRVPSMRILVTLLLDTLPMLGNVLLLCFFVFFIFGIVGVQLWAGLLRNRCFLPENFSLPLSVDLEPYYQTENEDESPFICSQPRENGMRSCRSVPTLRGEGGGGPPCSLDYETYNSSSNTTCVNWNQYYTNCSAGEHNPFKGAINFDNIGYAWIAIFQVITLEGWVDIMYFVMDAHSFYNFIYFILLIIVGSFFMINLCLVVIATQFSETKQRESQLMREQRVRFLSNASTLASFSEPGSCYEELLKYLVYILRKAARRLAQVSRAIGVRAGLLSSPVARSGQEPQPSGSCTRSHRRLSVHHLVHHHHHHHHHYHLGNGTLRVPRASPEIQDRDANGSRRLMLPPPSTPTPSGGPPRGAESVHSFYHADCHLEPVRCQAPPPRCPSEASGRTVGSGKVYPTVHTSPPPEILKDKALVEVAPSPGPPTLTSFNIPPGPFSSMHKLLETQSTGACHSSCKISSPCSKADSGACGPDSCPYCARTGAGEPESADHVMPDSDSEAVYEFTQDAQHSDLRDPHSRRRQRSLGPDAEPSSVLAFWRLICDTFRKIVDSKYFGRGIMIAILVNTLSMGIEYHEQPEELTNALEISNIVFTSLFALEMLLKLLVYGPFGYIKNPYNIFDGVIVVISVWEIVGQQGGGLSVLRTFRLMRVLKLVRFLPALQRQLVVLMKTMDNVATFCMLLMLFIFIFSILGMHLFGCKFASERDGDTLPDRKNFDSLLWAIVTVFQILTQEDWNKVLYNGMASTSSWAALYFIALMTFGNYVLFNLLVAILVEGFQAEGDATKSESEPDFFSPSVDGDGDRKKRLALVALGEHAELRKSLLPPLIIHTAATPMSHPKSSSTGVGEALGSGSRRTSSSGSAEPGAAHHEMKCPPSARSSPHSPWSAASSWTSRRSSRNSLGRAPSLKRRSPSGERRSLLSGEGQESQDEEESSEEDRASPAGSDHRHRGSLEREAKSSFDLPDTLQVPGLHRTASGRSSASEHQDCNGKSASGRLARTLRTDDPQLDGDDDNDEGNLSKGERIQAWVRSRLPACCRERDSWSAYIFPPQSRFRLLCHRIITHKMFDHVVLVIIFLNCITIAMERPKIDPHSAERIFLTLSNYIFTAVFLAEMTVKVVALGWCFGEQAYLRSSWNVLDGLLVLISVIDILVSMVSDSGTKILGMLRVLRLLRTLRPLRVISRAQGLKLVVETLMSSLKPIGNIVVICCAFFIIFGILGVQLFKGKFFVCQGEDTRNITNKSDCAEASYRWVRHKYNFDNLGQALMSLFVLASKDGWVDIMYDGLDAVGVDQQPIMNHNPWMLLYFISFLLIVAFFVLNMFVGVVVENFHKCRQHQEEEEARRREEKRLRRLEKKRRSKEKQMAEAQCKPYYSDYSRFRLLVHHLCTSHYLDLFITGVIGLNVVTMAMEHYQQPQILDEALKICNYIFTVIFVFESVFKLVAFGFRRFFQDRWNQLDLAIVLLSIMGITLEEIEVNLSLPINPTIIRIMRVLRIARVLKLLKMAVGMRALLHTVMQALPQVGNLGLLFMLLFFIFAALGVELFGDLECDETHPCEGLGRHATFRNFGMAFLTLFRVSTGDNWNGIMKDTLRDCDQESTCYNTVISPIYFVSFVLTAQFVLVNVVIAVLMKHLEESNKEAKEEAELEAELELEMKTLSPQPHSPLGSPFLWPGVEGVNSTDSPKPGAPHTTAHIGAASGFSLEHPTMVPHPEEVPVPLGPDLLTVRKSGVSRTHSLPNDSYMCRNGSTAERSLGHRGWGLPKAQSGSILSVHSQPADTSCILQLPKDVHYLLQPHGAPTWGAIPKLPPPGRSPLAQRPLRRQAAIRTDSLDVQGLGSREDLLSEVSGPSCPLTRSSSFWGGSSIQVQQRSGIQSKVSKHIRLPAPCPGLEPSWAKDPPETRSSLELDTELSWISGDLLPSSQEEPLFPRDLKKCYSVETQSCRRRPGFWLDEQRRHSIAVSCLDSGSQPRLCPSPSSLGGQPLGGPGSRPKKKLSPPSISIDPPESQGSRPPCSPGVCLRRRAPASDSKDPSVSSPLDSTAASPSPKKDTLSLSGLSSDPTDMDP

**Q.** What does the source list for kurtoxin (from UniProt P58910)?
**A.** Kd [1]: 15 nM; Kd (Cav3.2 (Homo sapiens)): 61 nM
